# B1: C-terminus of retrolinkin (RTLN-C, aa 489–574) fused to GST (domain or fragment, mouse, UniProt Q8BHE4 489-574, looked up)
# chain: CCMRRKKKTANPENNLSYWNNAITMDYFNRHAVELPREIQSLETSEDQLSEPRSPANGDYRDTGMVLVNPFCQETLFVGNDQVSEI
# Biological target: Recombinant His-tagged CYFIP2-N (aa 1–624) (mouse, UniProt Q5SQX6 1-624)
# Assay: pull-down
# Chain of Recombinant His-tagged CYFIP2-N (aa 1–624) (Q5SQX6 1-624): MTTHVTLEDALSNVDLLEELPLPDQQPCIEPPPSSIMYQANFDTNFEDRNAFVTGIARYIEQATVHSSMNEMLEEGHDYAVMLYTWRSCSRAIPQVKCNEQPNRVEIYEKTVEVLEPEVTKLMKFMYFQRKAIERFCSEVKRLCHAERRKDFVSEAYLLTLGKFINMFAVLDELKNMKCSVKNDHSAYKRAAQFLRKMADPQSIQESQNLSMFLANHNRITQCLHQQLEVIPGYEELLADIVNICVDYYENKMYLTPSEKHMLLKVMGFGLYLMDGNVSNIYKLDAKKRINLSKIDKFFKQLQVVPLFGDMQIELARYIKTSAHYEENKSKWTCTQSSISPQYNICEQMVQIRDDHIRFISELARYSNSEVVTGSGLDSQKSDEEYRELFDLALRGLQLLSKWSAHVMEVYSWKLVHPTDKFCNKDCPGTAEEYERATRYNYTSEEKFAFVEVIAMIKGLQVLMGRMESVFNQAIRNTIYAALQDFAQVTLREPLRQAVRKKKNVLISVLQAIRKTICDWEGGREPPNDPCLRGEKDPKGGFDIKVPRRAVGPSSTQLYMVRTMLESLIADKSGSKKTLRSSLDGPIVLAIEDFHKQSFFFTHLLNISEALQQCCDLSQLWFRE
binder,measurement,value
B1,binding result,binds

# — PMC5170866 (Molecular Biology of the Cell, 2016)
